US20030087866

Molecular target: T1, purified recombinant R2 protein, P11157
T1 chain: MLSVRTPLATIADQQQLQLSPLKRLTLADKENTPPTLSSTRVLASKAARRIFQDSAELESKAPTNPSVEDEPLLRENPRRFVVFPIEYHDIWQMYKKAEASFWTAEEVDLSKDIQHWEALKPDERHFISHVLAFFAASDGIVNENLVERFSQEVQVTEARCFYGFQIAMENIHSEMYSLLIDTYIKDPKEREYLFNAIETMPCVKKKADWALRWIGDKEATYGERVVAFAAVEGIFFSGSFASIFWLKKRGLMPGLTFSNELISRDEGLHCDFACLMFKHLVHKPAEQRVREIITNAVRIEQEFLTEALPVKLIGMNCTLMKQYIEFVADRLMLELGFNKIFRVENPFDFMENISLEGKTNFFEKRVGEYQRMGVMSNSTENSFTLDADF

B1: human Myc epitope-tagged mouse ribonucleotide reductase R1 protein (protein)
chain: EQKLISEEDLMHVIKRDGRQERVMFDKITSRIQKLCYGLNMDFVDPAQITMKVIQGLYSGVTTVELDTLAAETAATLTTKHPDYAILAARIAVSNLHKETKKVFSDVMEDLYNYINPHNGRHSPMVASSTLDIVMANKDRLNSAIIYDRDFSYNYFGFKTLERSYLLKINGKVAERPQHMLMRVSVGIHKEDIDAAIETYNLLSEKWFTHASPTLFNAGTNRPQLSSCFLLSMKDDSIEGIYDTLKQCALISKSAGGIGVAVSCIRATGSYIAGTNGNSNGLVPMLRVYNNTARYVDQGGNKRPGAFAIYLEPWHLDIFEFLDLKKNTGKEEQRARDLFFALWIPDLFMKRVETNQDWSLMCPNECPGLDEVWGEEFEKLYESYEKQGRVRKVVKAQQLWYAIIESQTETGTPYMLYKDSCNRKSNQQNLGTIKCSNLCTEIVEYTSKDEVAVCNLASLALNMYVTPEHTYDFEKLAEVTKVIVRNLNKIIDINYYPIPEAHLSNKRHRPIGIGVQGLADAFILMRYPFESPEAQLLNKQIFETIYYGALEASCELAKEYGPYETYEGSPVSKGILQYDMWNVAPTDLWDWKPLKEKIAKYGIRNSLLIAPMPTASTAQILGNNESIEPYTSNIYTRRVLSGEFQIVNPHLLKDLTERGLWNEEMKNQIIACNGSIQSIPEIPDDLKQLYKTVWEISQKTVLKMAAERGAFIDQSQSLNIHIAEPNYGKLTSMHFYGWKQGLKTGMYYLRTRPAANPIQFTLNKEKLKDKEKALKEEEEKERNTAAMVCSLENREECLMCGS
ribonucleotide reductase activity of the 9E10-immunoprecipitated R1 combined with purified recombinant R2: enzyme activity of 15.4±2.0 pmoles/mg/hr was detected when C1/mR1 cells (Table 1) were used as a source of recombinant R1
